US20210371491A1 (ALBERT LUDWIGS UNIVERSITAET FREIBURG, published 2021)

Biological target: prostate specific membrane antigen (PSMA) (UniProt Q04609 1-750, limits assumed)
Test: cell-based or functional assay

Chain of prostate specific membrane antigen (PSMA) (Q04609 whole entry, form in doubt): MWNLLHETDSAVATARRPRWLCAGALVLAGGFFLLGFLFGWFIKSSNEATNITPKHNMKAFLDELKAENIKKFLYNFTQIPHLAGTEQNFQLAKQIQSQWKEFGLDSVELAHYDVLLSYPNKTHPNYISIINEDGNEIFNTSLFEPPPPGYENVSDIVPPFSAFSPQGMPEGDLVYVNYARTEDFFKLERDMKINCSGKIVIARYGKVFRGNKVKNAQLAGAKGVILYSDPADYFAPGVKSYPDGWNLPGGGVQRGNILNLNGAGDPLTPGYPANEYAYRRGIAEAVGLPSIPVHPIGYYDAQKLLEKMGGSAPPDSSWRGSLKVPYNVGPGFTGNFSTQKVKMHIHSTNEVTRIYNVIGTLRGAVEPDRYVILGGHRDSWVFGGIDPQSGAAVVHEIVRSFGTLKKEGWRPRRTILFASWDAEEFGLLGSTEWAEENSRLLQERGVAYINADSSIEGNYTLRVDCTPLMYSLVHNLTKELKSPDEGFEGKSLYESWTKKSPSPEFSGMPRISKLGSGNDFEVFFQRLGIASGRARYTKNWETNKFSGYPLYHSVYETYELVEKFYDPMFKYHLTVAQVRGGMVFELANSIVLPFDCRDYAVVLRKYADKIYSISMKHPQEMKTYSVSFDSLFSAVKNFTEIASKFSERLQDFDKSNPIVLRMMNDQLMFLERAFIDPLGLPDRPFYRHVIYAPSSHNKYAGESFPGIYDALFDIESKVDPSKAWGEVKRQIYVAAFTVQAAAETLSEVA

B1: CAR28, anti-PSMA CAR with CD28 co-stimulatory domain (scFv D7) (other)
chain: MDFQVQIFSFLLISASVIMSRMAQVQLQQSGAELVEPGASVKLSCKASGYTFTYFDINWLRQRPEQGLEWIGGISPGDGNTNYNENFKGKATLTIDKSSTTAYIQLSRLTSEDSAVYFCARDGNFPYYAMDSWGQGTSVTVSSAKTTPKLGGGGSGGGGSGGGGSARVDIELTQSPLSLPVILGDQASISCRSSQSLVHSNGNTYLHWFLQKPGQSPKLLIYTVSNRFSGVPDRFSGSGSGTDFTLKISRVEAEDLGVYFCSQSTHVPTFGGGTKLEIKRSDPAEPKSPDKTHTCPPCPAPPVAGPSVFLFPPKPKDTLMIARTPEVTCVVVDVSHEDPEVKFNWYVDGVEVHNAKTKPREEQYNSTYRVVSVLTVLHQDWLNGKEYKCKVSNKALPAPIEKTISKAKGQPREPQVYTLPPSRDELTKNQVSLTCLVKGFYPSDIAVEWESNGQPENNYKTTPPVLDSDGSFFLYSKLTVDKSRWQQGNVFSCSVMHEALHNHYTQKSLSLSPGKKDPKFWVLVVVGGVLACYSLLVTVAFIIFWVRSKRSRLLHSDYMNMTPRRPGPTRKHYQAYAAARDFAAYRSLRVKFSRSADAPAYQQGQNQLYNELNLGRREEYDVLDKRRGRDPEMGGKPRRKNPQEGLYNELQKDKMAEAYSEIGMKGERRRGKGHDGLYQGLSTATKDTYDALHMQALPPR
cytotoxicity (XTT assay), PSMA expressing cells eliminated at E:T ratio 1:1: ≤ 90% | cytotoxicity (XTT assay), target cells eliminated at E:T ratio 1:4, 48 h co-culture with C4-2 cells: ~90%

B2: CAR41, anti-PSMA CAR with 4-1BB co-stimulatory domain (scFv D7) (other)
chain: MDFQVQIFSFLLISASVIMSRMAQVQLQQSGAELVEPGASVKLSCKASGYTFTYFDINWLRQRPEQGLEWIGGISPGDGNTNYNENFKGKATLTIDKSSTTAYIQLSRLTSEDSAVYFCARDGNFPYYAMDSWGQGTSVTVSSAKTTPKLGGGGSGGGGSGGGGSARVDIELTQSPLSLPVILGDQASISCRSSQSLVHSNGNTYLHWFLQKPGQSPKLLIYTVSNRFSGVPDRFSGSGSGTDFTLKISRVEAEDLGVYFCSQSTHVPTFGGGTKLEIKRAAALPAEPKSPDKTHTCPPCPAPPVAGPSVFLFPPKPKDTLMIARTPEVTCVVVDVSHEDPEVKFNWYVDGVEVHNAKTKPREEQYNSTYRVVSVLTVLHQDWLNGKEYKCKVSNKALPAPIEKTISKAKGQPREPQVYTLPPSRDELTKNQVSLTCLVKGFYPSDIAVEWESNGQPENNYKTTPPVLDSDGSFFLYSKLTVDKSRWQQGNVFSCSVMHEALHNHYTQKSLSSLSPGKKIYIWAPLAGTCGVLLLSLVITLYCKRGRKKLLYIFKQPFMRPVQTTQEEDGCSCRFPEEEEGGCELLRVKFSRSADAPAYQQGQNQLYNELNLGRREEYDVLDKRRGRDPEMGGKPRRKNPQEGLYNELQKDKMAEAYSEIGMKGERRRGKGHDGLYQGLSTATKDTYDALHMQALPPR
cytotoxicity (XTT assay), PSMA expressing cells eliminated at E:T ratio 1:1: ≤ 90%
